Assays:
[1] = biological target: the molecule itself; test: SEC; analytical gel filtration, Superose 12 10/300, 20 mM Tris-HCl pH 7.5, 150 mM KCl, 1 mM DTT, 500 µM EGTA + 1 mM Mg2+ or 1 mM Mg2+ + 1 mM Ca2+, room temperature; protein 20 µM (methods) or ~45 µM; apparent MW from a calibration curve
[2] = biological target: T1, human recombinant ROS-GC1 (retinal guanylate cyclase 1) (human, UniProt Q02846 52-1103); test: cell-based or functional assay
T1 sequence (looked up): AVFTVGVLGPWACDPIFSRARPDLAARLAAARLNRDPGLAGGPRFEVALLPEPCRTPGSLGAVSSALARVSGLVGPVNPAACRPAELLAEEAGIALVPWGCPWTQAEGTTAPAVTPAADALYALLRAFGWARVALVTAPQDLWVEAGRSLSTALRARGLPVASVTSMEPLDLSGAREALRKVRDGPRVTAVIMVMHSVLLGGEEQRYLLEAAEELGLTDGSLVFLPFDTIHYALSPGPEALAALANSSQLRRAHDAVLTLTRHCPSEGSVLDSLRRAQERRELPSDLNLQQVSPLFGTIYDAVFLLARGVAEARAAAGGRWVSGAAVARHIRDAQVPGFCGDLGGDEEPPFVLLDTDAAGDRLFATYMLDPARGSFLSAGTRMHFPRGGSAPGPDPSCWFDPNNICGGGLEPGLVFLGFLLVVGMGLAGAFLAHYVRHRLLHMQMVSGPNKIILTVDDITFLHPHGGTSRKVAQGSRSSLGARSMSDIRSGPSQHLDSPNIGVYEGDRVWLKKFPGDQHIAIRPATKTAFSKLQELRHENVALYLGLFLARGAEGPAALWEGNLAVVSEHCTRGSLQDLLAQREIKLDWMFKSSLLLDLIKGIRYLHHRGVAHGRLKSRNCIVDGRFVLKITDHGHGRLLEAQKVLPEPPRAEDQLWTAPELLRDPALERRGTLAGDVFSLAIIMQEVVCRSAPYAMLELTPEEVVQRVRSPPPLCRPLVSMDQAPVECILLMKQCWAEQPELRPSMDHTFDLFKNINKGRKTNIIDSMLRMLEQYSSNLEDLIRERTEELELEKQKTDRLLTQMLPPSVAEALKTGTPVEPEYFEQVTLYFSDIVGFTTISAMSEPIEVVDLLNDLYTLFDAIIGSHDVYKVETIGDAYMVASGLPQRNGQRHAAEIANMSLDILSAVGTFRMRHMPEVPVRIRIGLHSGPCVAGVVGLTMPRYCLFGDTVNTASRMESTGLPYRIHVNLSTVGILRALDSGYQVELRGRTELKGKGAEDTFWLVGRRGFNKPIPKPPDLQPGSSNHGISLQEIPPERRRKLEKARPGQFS

B1: N104H-GCAP1 (guanylate cyclase-activating protein 1, variant p.Asn104His, in the E6S background) (natural protein, human, UniProt P43080 1-201, looked up)
chain: MGNVMSGKSVEELSSTECHQWYKKFMTECPSGQLTLYEFRQFFGLKNLSPSASQYVEQMFETFDFNKDGYIDFMEYVAALSLVLKGKVEQKLRWYFKLYDVDGHGCIDRDELLTIIQAIRAINPCSDTTMTAEEFTDTVFSKIDVNGDGELSLEEFIEGVQKDQMLLDTLTRSLDLTRIVRRLQNGEQDEEGADEAAEAAG
modifications: N-terminal myristoylation (by co-expressed S. cerevisiae N-myristoyl transferase, yNMT)
notes: cDNA of GCAP1-E6S in pET-11a (NdeI/NheI); c.310A>C p.(Asn104His) introduced by site-directed mutagenesis; N104H is a patient variant; E6S was put in by the authors to give the consensus for myristoylation by yNMT; No tag is mentioned; Myristoylation on Gly2 implies loss of the initiator Met (surmise); also called N104H-GCAP1 variant; p.N104H; source: E. coli BL21 co-transformed with pBB131-yNMT
- stoichiometry N [1]: 2
- GC activity (cGMP synthesis, HPLC) of HEK293 membranes with human GC as a function of N104H-GCAP1 concentration (0-10 µM) at <19 nM free Ca2+; EC50 = [N104H] at which GC activity is half-maximal [2]: 1.6 µM
